According to PMC8244302, “Shotgun EM of mycobacterial protein complexes during stationary phase stress” (Current Research in Structural Biology, 2020):

Columns and labels:
[1] = molecular target: T1, Msm encapsulin (MSMEG_5830) (M. smegmatis (endogenous in Msm groELΔC), UniProt A0R4H0 1-265); assay: negative stain EM single-particle reconstruction; partially fractionated late stationary phase Msm lysate (anion exchange or sucrose cushion, >100 kDa cut-off), 2% uranyl acetate, Relion 3.1; symmetry imposed from 2D classes; C3 symmetry for encapsulin with cargo; conditions: partners not purified
T1 construct: encapsulin of Mycobacterium smegmatis, locus MSMEG_5830; Reconstructed with icosahedral symmetry; also called complex 001; encapsulin nanocompartment; source: endogenous, M. smegmatis groELΔC late stationary phase lysate, partially fractionated (anion exchange, >100 kDa cut-off; gel filtration); also solubilised membrane fraction
T1 sequence (looked up): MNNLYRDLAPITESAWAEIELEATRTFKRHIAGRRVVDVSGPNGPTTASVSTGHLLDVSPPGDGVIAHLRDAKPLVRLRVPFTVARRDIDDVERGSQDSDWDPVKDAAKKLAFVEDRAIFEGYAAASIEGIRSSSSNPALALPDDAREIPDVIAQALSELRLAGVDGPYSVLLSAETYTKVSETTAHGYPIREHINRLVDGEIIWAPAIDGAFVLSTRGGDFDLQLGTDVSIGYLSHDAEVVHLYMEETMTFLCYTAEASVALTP

[2] = molecular target: the molecule itself; assay: as above

B1: Msm dye-decolourising type peroxidase (MSMEG_5829) (enzyme, M. smegmatis (endogenous in Msm groELΔC), UniProt A0R4G9 1-343, looked up)
chain: MPAPQPQPVLAPLTPAAVFLVATIDEGQEATVYDALPDISGLVRAIGFRDPAKRLSAITSIGSDAWDRLFSGPRPAELHPFREIDGGRHHAPATPGDLLFHLRAESMDVCFELATKLVEAMSGAITIVDETHGFRFFDNRDLMGFVDGTENPDGNLAVVATQIGDEDPDFAGGCYVHVQKYLHDMASWNSLSVEEQERVIGRTKLDDIELDDDVKPANSHVALNVIEDEDGNELKIIRHNMPFGEIGKGEFGTYYIGYSRTPSVTERMLDNMFIGDPPGNTDRILDFSTAITGGLFFTPTVDFLDDPPPLPSEDDRAEPASAPSADPVHTDGSLGIGSLKGTR
notes: dye-decolourising type peroxidase of Mycobacterium smegmatis, locus MSMEG_5829; Interpreted as a D3 hexamer from the cargo density in the C3 map; also called DyP; DyP type peroxidase; source: endogenous, M. smegmatis groELΔC late stationary phase lysate, partially fractionated, enclosed in encapsulin; also solubilised membrane fraction
**Q.** With B1 as the binder, how does the “stoichiometry N” value [1] read?
**A.** Its value is 10 encapsulin subunits per DyP subunit.

**Q.** And the “stoichiometry N” value [2]?
**A.** Its value is 6 subunits.
